In test [1] the target is T1, human GLP-1 receptor (Abcam) (human, UniProt P43220 24-145).
T1 chain: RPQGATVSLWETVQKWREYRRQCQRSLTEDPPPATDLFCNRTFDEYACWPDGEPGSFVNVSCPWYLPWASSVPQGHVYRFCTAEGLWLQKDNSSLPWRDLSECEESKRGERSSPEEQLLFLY
In words: BLI. On the technique in general: In BLI a coated tip is dipped into the sample, and binding shifts an interference pattern.

Test [2] addresses Dulaglutide. In words: BLI.

This passage reports Kd results from patent publication US20200282021A1 (published 2020).

B1: GLP-1(A2G)-hyFc9 (Fc fusion)
chain: HGEGTFTSDVSSYLEGQAAKEFIAWLVKGRGAKATTAPATTRNTGRGGEEKKKEKEKEEQEERETKTPECPSHTQPLGVFLFPPKPKDTLMISRTPEVTCVVVDVSQEDPEVQFNWYVDGVEVHNAKTKPREEQFNSTYRVVSVLTVLHQDWLNGKEYKCKVSNKGLPSSIEKTISKAKGQPREPQVYTLPPSQEEMTKNQVSLTCLVKGFYPSDIAVEWESNGQPENNYKTTPPVLDSDGSFFLYSRLTVDKSRWQEGNVFSCSVMHEALHNHYTQKSLSLSLGK
modifications: O-glycosylation at the IgD hinge region (positions not stated)
The term Kd denotes the concentration at which binding is half-saturated. In test [1], B1 had a Kd of 45 µM.

B2: GLP-1 receptor (receptor)
chain: T1 chain
B2 showed a Kd in test [2] of 395 nM.
